Assay results taken from the supplement of paper PMC10567573.

B1: KLHL12 (parent)
chain: LDYTADEDGVWYSVAPMNVRRGLA

Variants of: B1
Assay: protein stability index of a GFP-peptide fusion (GPS, HEK-293T) (PSI 1-6); higher = more stable
Settings: c terminus: a fixed tail appended
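Further: lentivirally expressed fusions sorted by FACS into six bins by GFP to DsRed ratio, PSI derived from sequencing read proportions per bin multiplied by bin number.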

Protein stability index, by site and new letter:
D8: E 2.79, R 1.56, K 2.24, Y 2.23, H 1.82, A 1.67, S 2.69, T 1.48, L 1.73, P 2.26, V 1.6, G 1.74, F 1.21, C 2.81, I 1.96, N 1.42, M 1.93, Q 2.49, W 2.1
W11: V 3.62, C 3.05, F 2.85, R 2.8, P 3.56, H 3.05, Q 3.38, Y 2.39, I 2.61, T 2.99, L 3.21, N 3.97, K 3.18, D 4.35, S 3.62, E 4.55, M 2.72, A 3.86, G 3.69
A5: H 1.93, P 2.23, N 2.19, I 2.99, W 2.46, V 2.02, F 1.37, Y 2.6, Q 2.06, L 1.29, T 1.94, S 1.8, R 2.15, G 2.08, M 2.05, K 2.35
A15: D 2.32, C 1.74, V 1.76, Y 2.04, R 2.19, F 1.82, S 1.83, I 1.76, W 1.57, N 2.33, P 2.76, E 2.29, M 1.76, Q 2.24, G 2.06, H 1.7, T 2.04, K 2.13, L 2.08
V14: Q 3.31, C 2.5, D 3.79, E 3.61, R 3.33, F 2.18, T 3, L 1.82, M 2.33, K 4.17, N 2.83, Y 2.83, G 2.83, I 1.67, S 2.96, W 2, H 3.39, A 2.76, P 2.63
R20: H 1.75, K 1.89, C 1.54, G 1.72, D 2.65, A 2.1, Q 1.89, N 1.74, I 1.98, T 2.69, Y 1.97, E 3.32, P 1.81, M 2.4, F 1.7, S 2.31, V 2.49, W 2.05, L 2.26
G9: K 1.75, N 2.5, W 1.94, P 2.75, C 1.47, E 2.33, H 2.2, T 2.15, A 2.17, R 1.75, F 1.99, M 2.26, L 1.61, V 1.82, Q 2.21, Y 2.37, D 2.63, S 2.03, I 1.88
P16: V 1.85, K 1.95, Q 2.16, D 3.07, M 1.88, C 1.72, A 2.33, H 2.57, N 2.24, T 2.62, G 2.08, L 2.41, R 2.25, W 1.59, S 1.79, F 1.84, E 3.28, Y 2.56, I 1.79
M17: A 2.45, N 2.54, F 1.55, P 2.58, L 1.74, V 2.59, C 2.01, R 3.34, E 2.59, G 2.28, S 2.64, I 3.28, W 1.89, Y 1.86, H 2.41, Q 2.46, K 2.71, T 2.48, D 2.47
D6: P 2.46, C 2.61, K 2.44, I 1.4, S 1.91, G 2.36, A 1.93, L 2.08, E 2.16, Q 1.7, N 1.27, R 2.47, Y 1.51, T 1.91, M 2.18, H 1.85, V 1.99, F 2.98, W 2.71
E7: F 2.55, H 1.89, Y 1.95, R 2.77, K 2.01, W 2.19, N 2.09, L 2.79, D 1.46, A 1.28, P 2.02, S 1.8, I 2.43, M 1.91, V 1.44, Q 2.43, C 1.65, G 1.7, T 1.64
V10: L 3.09, A 3.22, H 2.44, C 2.44, Y 2.44, S 2.2, D 3.36, M 2.32, W 1.63, K 3.18, R 2.7, F 1.86, N 3.06, Q 2.99, G 3.38, T 2.82, P 2.47, E 3.37, I 1.84
S13: D 3.34, R 1.94, P 2.57, N 2.13, T 1.92, V 2.28, Y 2.21, F 2.6, W 1.37, L 1.89, K 2.29, I 1.43, Q 2.06, H 3.65, G 2.69, A 1.71, M 1.92, C 1.97, E 2.77
Y12: N 3.45, W 2.3, C 3.07, E 4.04, A 3.55, P 3.52, R 3.37, V 2.32, K 3.63, Q 3.61, M 2.36, D 3.74, H 3.24, T 3.12, F 2.23, G 2.84, S 3.12, I 1.89, L 2.02
V19: K 2.65, I 2.42, W 1.66, L 2.22, Y 1.78, F 1.78, G 1.95, H 2.98, D 2.32, T 1.91, P 2.11, M 1.52, Q 2.49, S 2.62, C 1.7, R 2.61, E 1.86, N 2.72, A 1.93
R21: V 2.19, T 2.72, Y 1.47, C 2.63, L 2.93, K 1.8, S 1.72, W 1.71, A 2.39, G 1.78, D 1.88, E 2.21, I 2.04, F 2.85, P 1.8, M 1.32, H 1.75, N 1.65, Q 1.71
N18: D 2.2, Y 2.24, Q 1.58, I 2.47, V 2.35, C 1.35, G 2.54, E 1.83, H 1.95, P 2.57, W 2.37, L 1.97, S 2.01, T 1.77, M 1.46, A 1.92, K 1.54, F 2.19
G22: P 2.21, C 2.27, S 1.72, A 1.5, I 2.16, R 2.15, L 2, Q 2.22, M 1.95, N 1.62, H 1.56, E 2.17, F 1.51, D 1.79, K 2.23
